For experiment [1], the target named is F-actin (rabbit) (UniProt P68135).
Experiment [2] has the same target. The source holds these as a separate data set.
Experiment [3] has as its target Regulated thin filaments (TRITC-actin with skeletal tropomyosin and troponin) (rabbit | not stated) (UniProt P68135).
Experiment [4] addresses F-actin (rabbit) (UniProt P68135). The source holds these as a separate data set.
Experiment [5] shares this target. The source holds these as a separate data set.
Experiment [6] shares this target. The source holds these as a separate data set.

1 substance from PMC8560993 can be followed below.

In the case of “Skeletal muscle myosin (from UniProt Q28641 1-1938) (complex)”, the actin activation of the ATPase activity of surface-bound myosin at low N in a motility flow cell (0.15 μM actin, Figure 3) in the experiment with F-actin (rabbit) [1] was 4 fold. For the same substance, in the experiment with F-actin (rabbit) [2], the KM: N at half-maximal V(N), in vitro motility assay, control without (-)-blebbistatin (Figure 2D) stood at 16.1; the KM: N at half-maximal V(N), in vitro motility assay, with 10 μM (-)-blebbistatin (Figure 2D) came out at 13.3; the KM: N at half-maximal V(N), in vitro motility assay, with 50 μM (-)-blebbistatin (Figure 2D) was 6.4. In addition, in experiment [3], the pseudo KM for pCa50: half the N at which the pCa50 of thin filament sliding velocity saturates, in vitro motility assay, 50 mM KCl is 24 and the pseudo KM for pCa50: half the N at which the pCa50 of thin filament sliding velocity saturates, in vitro motility assay, 100 mM KCl came out at 26. For the same substance, in the experiment with F-actin (rabbit) [4], the KM for F(N): N at half-maximal V(N) against a mechanical load of 0.5 μg/ml α-actinin on the motility surface worked out at 16; the KM for F(N): N at half-maximal V(N) against a mechanical load of 1.0 μg/ml α-actinin on the motility surface was determined as 38; the KM for V: N (myosin per μm actin; N equals μg/ml myosin incubated) at half-maximal actin sliding velocity V(N), in vitro motility assay, 50 mM KCl, 30 °C is 16; the KM for V: N at half-maximal actin sliding velocity V(N), in vitro motility assay, 100 mM KCl, 30 °C came to 17. In the experiment with F-actin (rabbit) [4], the KM for v: N at half-maximal actin-activated ATPase activity v(N), measured in a motility flow cell, 50 mM KCl, 30 °C amounted to 46 and the KM for v: N at half-maximal actin-activated ATPase activity v(N), measured in a motility flow cell, 100 mM KCl, 30 °C turned out to be 23. For the same substance, the inhibition of actin-activated ATPase activity (N = 5, 1.0 μM actin; v from 0.59 to 0.26 μM Pi/min) by the load of 1.0 μg/ml α-actinin on the motility surface with F-actin (rabbit) [5] was 55%. Besides, the KM: N at half-maximal V(N), in vitro motility assay, control without α-actinin (Figure 5A) with F-actin (rabbit) [6] was found to be 19.
